Data published in PMC3267046, “Structure of Ddn, the Deazaflavin-Dependent Nitroreductase from Mycobacterium tuberculosis Involved in Bioreductive Activation of PA-824” (Structure(London, England:1993), 2012).

Target: the molecule itself
Assay: SEC

Protein	binding result
MBP-Ddn fusion protein, full-length wild-type deazaflavin-dependent nitroreductase (Ddn, Rv3547) fro (enzyme, also called WT MBP-Ddn) MPKSPPRFLNSPLSDFFIKWMSRINTWMYRRNDGEGLGGTFQKIPVALLTTTGRKTGQPRVNPLYFLRDGGRVIVAASKGGAEKNPMWYLNLKANPKVQVQIKKEVLDLTARDATDEERAEYWPQLVTMYPSYQDYQSWTDRTIPIVVCEP	binds
Untagged wild-type Ddn (full length), produced by proteolytic removal of MBP (enzyme, also called Untagged Ddn; untagged WT Ddn) MPKSPPRFLNSPLSDFFIKWMSRINTWMYRRNDGEGLGGTFQKIPVALLTTTGRKTGQPRVNPLYFLRDGGRVIVAASKGGAEKNPMWYLNLKANPKVQVQIKKEVLDLTARDATDEERAEYWPQLVTMYPSYQDYQSWTDRTIPIVVCEP	binds
